PMC5014551, “Role of Nfu1 and Bol3 in iron-sulfur cluster transfer to mitochondrial clients” (eLife, 2016)

Biological target: T1, recombinant human BOLA1, fluorescently labelled (human, UniProt Q9Y3E2 1-137, NT-647 dye (Monolith NT Protein Labeling Kit RED))
T1 construct: BOLA1, human mitochondrial BolA protein
T1 sequence (looked up): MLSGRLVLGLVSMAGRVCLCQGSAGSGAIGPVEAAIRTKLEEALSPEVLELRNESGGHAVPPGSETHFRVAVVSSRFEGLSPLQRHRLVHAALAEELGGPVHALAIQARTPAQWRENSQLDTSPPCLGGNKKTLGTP
Test: MST; 200 nM NT-647 labelled protein titrated with unlabelled protein from 200 µM to 6.1 nM; 50 mM KPi pH 7.4, 150 mM NaCl, 5% glycerol, 0.05 mg/mL BSA, 0.05% Tween20; 21°C; anaerobic
Conditions: both partners purified

fold affinity against BOLA3: 50 fold
B1: human holo-GLRX5 dimer containing the bridging [2Fe-2S] cluster (natural protein, UniProt Q86SX6 32-157, looked up)
chain: AGSGAGGGGSAEQLDALVKKDKVVVFLKGTPEQPQCGFSNAVVQILRLHGVRDYAAYNVLDDPELRQGIKDYSNWPTIPQVYLNGEFVGGCDILLQMHQNGDLVEELKKLGIHSALLDEKKDQDSK
modifications: bridging [2Fe-2S] cluster between two GLRX5 monomers
notes: GLRX5, human mitochondrial monothiol glutaredoxin, chemically reconstituted; also called chemically reconstituted GLRX5; source: chemically reconstituted with Fe-S cluster in an anaerobic chamber
